How the values were obtained:
[1] = target: T1, ABF1 (Arabidopsis thaliana) (UniProt Q9M7Q5); assay: one_hybrid
T1 sequence: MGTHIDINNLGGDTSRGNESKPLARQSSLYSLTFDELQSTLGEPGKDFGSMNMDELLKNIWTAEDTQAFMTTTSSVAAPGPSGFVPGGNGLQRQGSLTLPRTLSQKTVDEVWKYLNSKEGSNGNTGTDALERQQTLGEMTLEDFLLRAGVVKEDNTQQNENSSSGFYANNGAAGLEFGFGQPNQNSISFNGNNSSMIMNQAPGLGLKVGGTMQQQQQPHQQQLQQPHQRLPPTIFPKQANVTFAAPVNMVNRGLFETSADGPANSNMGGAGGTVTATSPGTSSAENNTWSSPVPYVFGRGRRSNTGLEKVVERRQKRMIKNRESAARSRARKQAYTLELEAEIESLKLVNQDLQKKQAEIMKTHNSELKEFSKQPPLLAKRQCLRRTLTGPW

[2] = tested on: ABF2 (Arabidopsis thaliana); assay: one_hybrid

Em1a trimer reporter
activity (fold over control vector) [1]: 6
activity (fold over background) [2]: 2
